US20130266517A1 (published 2013)
Residue numbers refer to the chain shown, from its start.

B1: Murine 1H7 (antibody, mouse IgG1, V domains shown)
VH: VQLQQSGPELVKPGTSVKISCKASGYSFTSYYIHWVKQSPGQGLEWIGWIYPGSGNTKYSEKFKGKATLTADTSSSTAYMQLSSLTSEDSAVYFCARDGCYGFAYWGQGTLVTVS
VL: DIVLTQSPASLAVSLGQRATISCKASQSVDYDGDSYMNWYQQKPGQPPKFLICAASNLESGIPARFSGSGSGTDFTLNIHPVEEEDAATYYCQQSNEDPFTFGSGTKLEIK
notes: Mouse IgG1; also called m1H7; mouse 1H7
B2: Humanized 1H7 H5L1 (Hu1H7VHv5-Hu1H7VLv1) (antibody, V domains shown)
VH: QVQLVQSGAEVKKPGASVKVSCKASGYTFTSYYIHWVRQAPGQGLEWMGWIYPGSGNTKYSEKFKGRATMTADTSTSTAYMELRSLRSDDTAVYYCARDGSYGFAYWGQGTLVTVSS
VL: DIQLTQSPSSLSASVGDRVTITCKASQSVDYDGDSYMNWYQQKPGKAPKFLICAASNLESGVPSRFSGSGSGTDFTLTISSLQPEDAATYYCQQSNEDPFTFGQGTKLEIK
B3: Humanized 1H7 H3L1 (Hu1H7VHv3-Hu1H7VLv1) (antibody, V domains shown)
VH: B2 VH with S101C
VL: B2 VL
B4: Humanized 1H7 H3L3 (Hu1H7VHv3-Hu1H7VLv3) (antibody, V domains shown)
VH: B2 VH with S101C
VL: B2 VL with A87F
B5: Humanized 1H7 H4L1 (Hu1H7VHv4-Hu1H7VLv1) (antibody, V domains shown)
VH: B2 VH with T28S, M48I, M70L, Y95F
VL: B2 VL
B6: Humanized 1H7 H2L1 (Hu1H7VHv2-Hu1H7VLv1) (antibody, V domains shown)
VH: B2 VH with T28S, M48I, M70L, Y95F, S101C
VL: B2 VL
B7: Humanized 1H7 H1L3 (Hu1H7VHv1-Hu1H7VLv3) (antibody, V domains shown)
VH: B2 VH with V11L, T28S, R38K, M48I, M70L, Y95F, S101C
VL: B2 VL with A87F
B8: Humanized 1H7 H4L4 (Hu1H7VHv4-Hu1H7VLv4) (antibody, V domains shown)
VH: B2 VH with T28S, M48I, M70L, Y95F
VL: B2 VL with C53Y, A87F
B9: Humanized 1H7 H5L4 (Hu1H7VHv5-Hu1H7VLv4) (antibody, V domains shown)
VH: B2 VH
VL: B2 VL with C53Y, A87F
B10: Humanized 1H7 H1L4 (Hu1H7VHv1-Hu1H7VLv4) (antibody, V domains shown)
VH: B2 VH with V11L, T28S, R38K, M48I, M70L, Y95F, S101C
VL: B2 VL with C53Y, A87F
B11: Humanized 1H7 H1L2 (Hu1H7VHv1-Hu1H7VLv2) (antibody, V domains shown)
VH: B2 VH with V11L, T28S, R38K, M48I, M70L, Y95F, S101C
VL: B2 VL with C53Y
B12: Humanized 1H7 H1L1 (Hu1H7VHv1-Hu1H7VLv1) (antibody, V domains shown)
VH: B2 VH with V11L, T28S, R38K, M48I, M70L, Y95F, S101C
VL: B2 VL
B13: Humanized 1H7 H2L2 (Hu1H7VHv2-Hu1H7VLv2) (antibody, V domains shown)
VH: B2 VH with T28S, M48I, M70L, Y95F, S101C
VL: B2 VL with C53Y
B14: Humanized 1H7 H5L2 (Hu1H7VHv5-Hu1H7VLv2) (antibody, V domains shown)
VH: B2 VH
VL: B2 VL with C53Y
B15: Humanized 1H7 H4L3 (Hu1H7VHv4-Hu1H7VLv3) (antibody, V domains shown)
VH: B2 VH with T28S, M48I, M70L, Y95F
VL: B2 VL with A87F
B16: Humanized 1H7 H4L2 (Hu1H7VHv4-Hu1H7VLv2) (antibody, V domains shown)
VH: B2 VH with T28S, M48I, M70L, Y95F
VL: B2 VL with C53Y
B17: Humanized 1H7 H5L3 (Hu1H7VHv5-Hu1H7VLv3) (antibody, V domains shown)
VH: B2 VH
VL: B2 VL with A87F

target: T1, alpha-synuclein (natural human wildtype alpha-synuclein) (human, UniProt P37840 1-140); assay: Biacore (SPR) full kinetic analysis
Protocol: Biacore full binding kinetic analysis of antibodies were carried out using Biacore. Detailed binding kinetic parameters (association rate, ka, dissociation rate, kd, and affinity constant, KD) were determined for murine 1H7 (FIG. 3A), chimeric 1H7 (FIG. 3B) and humanized 1H7 (Hu1H7VHv3-Hu1H7VLv3, Hu1H7VHv3-Hu1H7VLv1, Hu1H7VHv4-Hu1H7VLv1) antibodies (FIG. 3C).

Binder | Kd [nM] | koff [s⁻¹] | kon [M⁻¹ s⁻¹]
B1 | 9.5 | 0.0096 | 1e+06
B2 | 64 | 0.056 | 880000
B3 | 12 | 0.013 | 1.1e+06
B4 | 9 | 0.011 | 1.3e+06
B5 | 33.9 | 0.033 | 970000

target: T1, alpha-synuclein (natural human wildtype …); assay: BLI, ForteBio Octet QK; apparent KD
Protocol: (§1) Binding kinetic of humanized 1H7 antibodies were also measured by bio-layer interferometry (BLI) using a ForteBio Octet QK instrument (ForteBio, Menlo Park, Calif.). Detailed binding kinetic parameters (association rate, apparent ka, dissociation rate, apparent kd, and affinity constant, apparent KD) were determined for chimeric 1H7 and various humanized 1H7 antibodies (Tables 6-7, FIGS. 4A-C). Apparent ka, apparent kd and apparent KD are binding kinetic parameters obtained using ForteBio assay formats. These parameters differ from ka, kd and KD measured using Biocore assays due to, e.g., avidity effects associated with ForteBio assay formats.

Binder | Kd [nM]
B6 | 0.0072
B7 | 2.9
B8 | 4.4
B9 | 1.2
B10 | 3.3
B11 | 5.8
B12 | 4.8
B13 | 2
B14 | 4
B15 | 2.7
B16 | 1.7
B17 | 2.6

target: T1, alpha-synuclein (natural human wildtype …); assay: BLI, ForteBio Octet QK; apparent ka
Protocol: as §1

Binder | kon [M⁻¹ s⁻¹]
B6 | 580000
B7 | 220000
B8 | 520000
B9 | 1.6e+06
B10 | 1.8e+06
B11 | 1.6e+06
B12 | 250000
B13 | 2.3e+06
B14 | 520000
B15 | 740000
B16 | 1.2e+06
B17 | 760000

target: T1, alpha-synuclein (natural human wildtype …); assay: BLI, ForteBio Octet QK; apparent kd
Protocol: as §1

Binder | koff [s⁻¹]
B6 | 4.2e-06
B7 | 0.00064
B8 | 0.0023
B9 | 0.0019
B10 | 0.0058
B11 | 0.009
B12 | 0.0012
B13 | 0.0046
B14 | 0.0021
B15 | 0.002
B16 | 0.0021
B17 | 0.002
